Drawing on patent US20170240635A1 (AGENCY FOR SCIENCE TECHNOLOGY AND RESEARCH, published 2017), this text covers Kd, binding result and EC50 for 13 molecules.

Experiment [1] concerns the target T1, human PD-1 coupled to human Fc (human, UniProt Q15116 25-167, limits assumed).
T1 construct: also called human-PD-1 coupled to Fc; not shown: human Fc
Description: SPR (ProteOn XPR36); human PD-1-Fc immobilised, crude Fab extract flown over. The procedure:
Briefly, human or mouse PD-1 coupled to human Fc was immobilised on a sensor chip compatible with the Proteon XPR36 bioanalyser (Biorad). Crude Fab extracts (or the control antibodies) were then flown onto the chip and the association/dissociation of each candidate Fab was then recorded and analysed, the affinity (KD) was calculated.

Another experiment deals with T2, hCTLA4-Fc (human, UniProt P16410).
T2 construct: also called human CTLA-4; human CTLA4
T2 sequence (P16410 37-162 limits assumed): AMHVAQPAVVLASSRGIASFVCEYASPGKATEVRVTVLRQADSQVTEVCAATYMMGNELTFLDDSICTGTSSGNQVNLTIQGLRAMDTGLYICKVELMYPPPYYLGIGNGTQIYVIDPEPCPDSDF
Description: ELISA; antigen coated 350 ng/well, goat anti-human Fab-HRP, absorbance 450-670 nm. The method, then:
(§1) Anti-PD-1 antibodies were tested in an ELISA assay for their ability to bind to other members of the CD28 family.
(§2) Briefly, ELISA plates were coated with 350 ng/well of one of the following antigens coupled to human Fc in carbonate buffer: human PD-1, human PD-L1, human TIM-3, human LAG-3, human ICOS, human CTLA4, human BTLA, human CD28, mouse TIM-3, or rhesus PD-1. The plate was then blocked with a solution of casein. After extensive washes in PBS Tween-20, antibodies were added into the ELISA wells in the presence of 7% milk in PBS. After 90 minutes at room temperature under agitation and extensive washes, a goat anti-human Fab antibody coupled to HRP was added. One hour later, plates were washed and TMB substrate added. The reaction was stopped with 1M HCl and optical density measured at 450 nm with a reference at 670 nm.

The target of another experiment is T3, hICOS-Fc (human, UniProt Q9Y6W8).
T3 construct: also called human ICOS
T3 sequence (antigen, looked up): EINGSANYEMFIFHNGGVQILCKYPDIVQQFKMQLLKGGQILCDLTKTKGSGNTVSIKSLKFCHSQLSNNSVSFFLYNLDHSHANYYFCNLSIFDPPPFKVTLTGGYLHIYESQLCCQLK
The description is as above. The method, then: as §1, §2

The next experiment has as its target T4, mTim3-Fc (mouse, UniProt Q8VIM0).
T4 construct: also called mouse TIM-3
The description is as above. The procedure:
as §1, §2

Experiment [2] has as its target T5, human PD-L1 coupled to human Fc (human, UniProt Q9NZQ7 19-239, limits assumed).
T5 construct: ELISA coating antigen; not shown: human Fc
The description is as above. The method, then:
as §1, §2

Experiment [3] concerns the target T6, human TIM-3 coupled to human Fc (human, UniProt Q8TDQ0 22-200, limits assumed).
T6 construct: not shown: human Fc
The description is as above. The method, then: as §1, §2

For experiment [4], the target named is T7, human LAG-3 coupled to human Fc (human, UniProt P18627 23-450, limits assumed).
T7 construct: ELISA coating antigen; not shown: human Fc
T7 sequence (looked up): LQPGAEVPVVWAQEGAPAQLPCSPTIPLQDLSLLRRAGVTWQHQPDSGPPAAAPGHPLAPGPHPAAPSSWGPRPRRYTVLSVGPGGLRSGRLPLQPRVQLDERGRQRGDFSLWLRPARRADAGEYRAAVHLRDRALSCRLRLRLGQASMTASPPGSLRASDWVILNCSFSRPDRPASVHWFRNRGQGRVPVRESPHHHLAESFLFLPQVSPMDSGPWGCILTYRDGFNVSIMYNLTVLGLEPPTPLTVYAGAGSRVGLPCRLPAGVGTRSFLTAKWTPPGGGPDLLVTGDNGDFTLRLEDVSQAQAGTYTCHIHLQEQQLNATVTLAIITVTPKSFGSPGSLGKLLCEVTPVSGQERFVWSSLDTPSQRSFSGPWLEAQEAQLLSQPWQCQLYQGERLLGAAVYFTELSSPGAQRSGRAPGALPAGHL
The experiment is described as above. The procedure: as §1, §2

The target in experiment [5] is T8, human BTLA coupled to human Fc (human, UniProt Q7Z6A9 31-150, limits assumed).
T8 construct: ELISA coating antigen; not shown: human Fc
T8 sequence (Q7Z6A9 31-150 limits assumed): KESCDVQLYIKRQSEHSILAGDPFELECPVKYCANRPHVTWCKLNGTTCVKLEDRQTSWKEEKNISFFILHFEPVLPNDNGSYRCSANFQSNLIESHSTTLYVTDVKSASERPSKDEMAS
The description is as above. The procedure: as §1, §2

Experiment [6] concerns the target T9, human CD28 coupled to human Fc (human, UniProt P10747 19-152, limits assumed).
T9 construct: ELISA coating antigen; not shown: human Fc
The experiment is described as above. The procedure: as §1, §2

For experiment [7], the target named is T10, PD-1 on exhausted human T cells (human, UniProt Q15116 25-288).
T10 construct: whole, on cells; T cells exhausted by 7 days of culture with allogeneic monocyte-derived dendritic cells
T10 sequence (Q15116 25-288): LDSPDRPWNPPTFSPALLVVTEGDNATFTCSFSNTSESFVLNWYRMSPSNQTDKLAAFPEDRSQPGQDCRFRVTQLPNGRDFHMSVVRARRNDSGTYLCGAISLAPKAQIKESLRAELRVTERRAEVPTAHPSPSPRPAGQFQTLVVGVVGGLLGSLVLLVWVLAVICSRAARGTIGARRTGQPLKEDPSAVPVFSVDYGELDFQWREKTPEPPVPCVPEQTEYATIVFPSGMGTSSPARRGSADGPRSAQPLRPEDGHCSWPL
Description: flow cytometry (MFI); IgG4 on human T cells activated 7 days with allogeneic DCs, fluorescent secondary antibody. The method, then:
50,000 T cells isolated from a healthy donor were incubated in the presence of 5,000 monocyte-derived DCs from another donor for 7 days at 37° C. Antibodies, expressed as IgG4, were incubated with such activated T cells for 30 minutes in PBS. After a wash in PBS, a fluorescent labelled secondary antibody was added for 30 minutes and then washed in PBS. Cells were resuspended in FACS buffer and binding of the antibody to the cells was monitored by flow cytometry (FIGS. 6 and 7).
Background: A flow cytometer gives signals particle by particle.

T5 sequence (Q9NZQ7 19-239 limits assumed): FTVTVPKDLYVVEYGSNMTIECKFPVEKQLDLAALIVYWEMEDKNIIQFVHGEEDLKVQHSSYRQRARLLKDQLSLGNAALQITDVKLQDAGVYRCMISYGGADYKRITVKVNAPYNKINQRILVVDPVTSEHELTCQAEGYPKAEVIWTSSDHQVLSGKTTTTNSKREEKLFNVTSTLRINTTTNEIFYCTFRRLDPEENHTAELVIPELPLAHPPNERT
T4 sequence (Q8VIM0 20-191 limits assumed): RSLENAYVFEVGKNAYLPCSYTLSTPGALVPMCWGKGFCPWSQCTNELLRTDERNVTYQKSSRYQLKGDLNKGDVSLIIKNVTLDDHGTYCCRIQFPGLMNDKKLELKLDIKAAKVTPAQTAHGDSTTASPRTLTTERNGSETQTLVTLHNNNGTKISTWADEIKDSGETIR
T1 sequence (Q15116 25-167 limits assumed): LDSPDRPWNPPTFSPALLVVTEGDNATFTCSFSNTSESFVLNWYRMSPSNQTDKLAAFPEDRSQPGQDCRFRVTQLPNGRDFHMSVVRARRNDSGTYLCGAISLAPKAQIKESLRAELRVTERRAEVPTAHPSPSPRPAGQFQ

B1: anti-PD-1 antibody clone G2 (Fab) (Fab, V domains shown)
VH: QVQLVESGGGVVQPGRSLRLSCAASGFTFSSYGMHWVRQAPGKGLEWVAVISYDGSNKYYADSVKGRFTISRDNSKNTLYLQMNSLRAEDTAVYYCASDLGAGPYYYGMDVWGQGTTVTVSS
VL: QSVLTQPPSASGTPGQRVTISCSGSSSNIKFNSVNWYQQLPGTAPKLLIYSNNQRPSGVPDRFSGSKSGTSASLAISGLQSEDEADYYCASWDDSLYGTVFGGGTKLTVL
notes: Crude Fab extract in SPR
As for B1, the dissociation constant (Kd) in [1] was found to be 0.1 nM. Also, the binding result (in the experiment with hCTLA4-Fc; with hICOS-Fc; with mTim3-Fc; in experiment [2]; in experiment [3]; in [4]) was “no binding (tested: not given)” throughout. Moreover, the binding result in [5] and in [6] was “no binding (tested: not given)” throughout.

B2: G2 (antibody, IgG4, V domains shown)
VH: QVQLVESGGGVVQPGRSLRLSCAASGFTFSSYGMHWVRQAPGKGLEWVAVISYDGSNKYYADSVKGRFTISRDNSKNTLYLQMNSLRAEDTAVYYCASDLGAGPYYYGMDVWGQGTTVTVSS
VL: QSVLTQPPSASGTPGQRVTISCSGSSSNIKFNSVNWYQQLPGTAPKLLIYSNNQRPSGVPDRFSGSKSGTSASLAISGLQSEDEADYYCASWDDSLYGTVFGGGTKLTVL
notes: also called anti-PD-1 antibody clone G2 (human IgG4)
B2 returned a concentration for a half-maximal effect (EC50) in [7] of 0.78 nM.

B3: H9 (antibody, IgG4, V domains shown)
VH: QVQLVESGGGVVQPGRSLRLSCAASGFTFSSYGMHWVRQAPGKGLEWVAVISYDGSNKYYADSVKGRFTISRDNSKNTLYLQMNSLRAEDTAVYYCASDLGAGPYYYGMDVWGQGTTVTVSS
VL: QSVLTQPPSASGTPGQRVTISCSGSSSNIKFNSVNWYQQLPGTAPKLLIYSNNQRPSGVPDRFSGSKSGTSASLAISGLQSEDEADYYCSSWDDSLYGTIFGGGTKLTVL
notes: also called anti-PD-1 antibody clone H9 (human IgG4)
In [7], B3 registered an EC50 of 0.375 nM.

B4: C4 (antibody, IgG4, V domains shown)
VH: QVQLVESGGGVVQPGRSLRLSCAASGFTFSSYGMHWVRQAPGKGLEWVAVISYDGSNKYYADSVKGRFTISRDNSKNTLYLQMNSLRAEDTAVYYCASDLGAGPYYYGLDVWGQGTTVTVSS
VL: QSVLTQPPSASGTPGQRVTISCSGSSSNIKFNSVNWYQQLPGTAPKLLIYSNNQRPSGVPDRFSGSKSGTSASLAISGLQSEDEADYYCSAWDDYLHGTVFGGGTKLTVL
notes: also called anti-PD-1 antibody clone C4 (human IgG4)
In the case of B4, in experiment [7], the EC50 was determined as 0.281 nM.

B5: G10 (antibody, IgG4, V domains shown)
VH: QVQLVESGGGVVQPGRSLRLSCAASGFTFSSYGMHWVRQAPGKGLEWVAVISYDGSNKYYADSVKGRFTISRDNSKNTLYLQMNSLRAEDTAVYYCASDYGAGPYYYGMDVWGQGTTVTVSS
VL: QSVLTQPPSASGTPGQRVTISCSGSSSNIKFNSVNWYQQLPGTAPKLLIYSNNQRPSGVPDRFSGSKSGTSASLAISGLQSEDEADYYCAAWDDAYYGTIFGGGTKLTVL
notes: also called anti-PD-1 antibody clone G10 (human IgG4)
On to B5, for which it took 0.532 nM to reach a half-maximal effect in [7] (EC50).

B6: E1 (antibody, IgG4, V domains shown)
VH: QVQLVESGGGVVQPGRSLRLSCAASGFTFSSYGMHWVRQAPGKGLEWVAVISYDGSNKYYADSVKGRFTISRDNSKNTLYLQMNSLRAEDTAVYYCASDLGAGPYYYGMDVWGQGTTVTVSS
VL: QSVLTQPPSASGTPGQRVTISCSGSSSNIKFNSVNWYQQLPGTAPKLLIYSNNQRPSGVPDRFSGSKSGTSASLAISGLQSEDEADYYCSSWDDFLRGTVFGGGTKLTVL
notes: also called anti-PD-1 antibody clone E1 (human IgG4)
In the case of B6, the EC50 in experiment [7] came out at 0.542 nM.

B7: D4 (antibody, IgG4, V domains shown)
VH: QVQLVESGGGVVQPGRSLRLSCAASGFTFSSYGMHWVRQAPGKGLEWVAVISYDGSNKYYADSVKGRFTISRDNSKNTLYLQMNSLRAEDTAVYYCASDLGAGPYYYGMDVWGQGTTVTVSS
VL: QSVLTQPPSASGTPGQRVTISCSGSSSNIKFNSVNWYQQLPGTAPKLLIYSNNQRPSGVPDRFSGSKSGTSASLAISGLQSEDEADYYCASWDDYVRGTMFGGGTKLTVL
notes: also called anti-PD-1 antibody clone D4 (human IgG4)
In [7], B7 displayed a half-maximal effective concentration (EC50) of 0.318 nM.

B8: H4 (antibody, IgG4, V domains shown)
VH: QVQLVESGGGVVQPGRSLRLSCAASGFTFSSYGMHWVRQAPGKGLEWVAVISYDGSNKYYADSVKGRFTISRDNSKNTLYLQMNSLRAEDTAVYYCASDLGSGYYLYGMDVWGQGTTVTVSS
VL: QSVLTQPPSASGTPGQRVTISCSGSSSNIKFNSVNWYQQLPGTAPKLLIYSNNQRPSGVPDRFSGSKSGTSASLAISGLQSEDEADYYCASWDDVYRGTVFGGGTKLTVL
notes: also called anti-PD-1 antibody clone H4 (human IgG4)
Molecule B8 returned an EC50 in experiment [7] of 0.189 nM.

B9: B6 (antibody, IgG4, V domains shown)
VH: QVQLVESGGGVVQPGRSLRLSCAASGFTFSSYGMHWVRQAPGKGLEWVAVISYDGSNKYYADSVKGRFTISRDNSKNTLYLQMNSLRAEDTAVYYCASDYGAGPYYYGMDVWGQGTTVTVSS
VL: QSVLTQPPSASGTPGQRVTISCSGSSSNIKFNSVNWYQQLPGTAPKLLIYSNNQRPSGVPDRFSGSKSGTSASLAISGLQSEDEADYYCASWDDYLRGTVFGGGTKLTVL
notes: also called anti-PD-1 antibody clone B6 (human IgG4)
On to B9, for which the response in experiment [7] was half-maximal at 0.158 nM (EC50).

B10: anti-PD-1 antibody clone A3 (Fab) (Fab, V domains shown)
VH: QVQLVQSGGGVVQPGRSLRLSCAASGFTFSSYGMHWVRQAPGKGLEWVAVISYDGSNKYYADSVKGRFTISRDNSKNTLYLQMNSLRAEDTAVYYCASDLGAGPYYYGKDHWGQGTTVTVSS
VL: LPVLTQPPSASGTPGQRVTISCSGSSSNIKFNSVNWYQQLPGTAPKLLIYSNNQRPSGVPDRFSGSKSGTSASLAISGLQSEDEADYFCASWDDVLYGSVFGGGTKLTVL
notes: Flown as crude Fab extract in SPR
Molecule B10 gave a Kd in experiment [1] of 0.2 nM. The binding result (in the experiment with hCTLA4-Fc; with hICOS-Fc; in the experiment with mTim3-Fc; in experiment [2]; in [3]; in [4]) was “no binding (tested: not given)” each time. Further, the binding result in [5] and in experiment [6] was “no binding (tested: not given)” in each case.

B11: anti-PD-1 antibody clone H9 (Fab) (Fab, V domains shown)
VH: QVQLVESGGGVVQPGRSLRLSCAASGFTFSSYGMHWVRQAPGKGLEWVAVISYDGSNKYYADSVKGRFTISRDNSKNTLYLQMNSLRAEDTAVYYCASDLGAGPYYYGMDVWGQGTTVTVSS
VL: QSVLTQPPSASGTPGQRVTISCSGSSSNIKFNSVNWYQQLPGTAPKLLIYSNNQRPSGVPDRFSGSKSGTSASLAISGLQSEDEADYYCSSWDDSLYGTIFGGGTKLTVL
notes: Crude Fab extract in SPR
Consider B11, for which the binding result (with hCTLA4-Fc; in the experiment with hICOS-Fc; in the experiment with mTim3-Fc; in experiment [2]; in experiment [3]; in experiment [4]) was “no binding (tested: not given)” in each case. Moreover, the binding result in [5] and in experiment [6] was “no binding (tested: not given)” in each case.

B12: G1 (antibody, IgG4, V domains shown)
VH: QVQLVESGGGVVQPGRSLRLSCAASGFTFSSYGMHWVRQAPGKGLEWVAVISYDGSNKYYADSVKGRFTISRDNSKNTLYLQMNSLRAEDTAVYYCASDLGAGPYYYGMDVWGQGTTVTVSS
VL: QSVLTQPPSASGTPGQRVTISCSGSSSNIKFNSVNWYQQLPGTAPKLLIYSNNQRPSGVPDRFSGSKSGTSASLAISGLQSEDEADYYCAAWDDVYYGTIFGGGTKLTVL
notes: also called anti-PD-1 antibody clone G1 (human IgG4)
The molecule B12 showed an EC50 in experiment [7] of 0.738 nM.

B13: F2 (antibody, IgG4, V domains shown)
VH: QVQLVESGGGVVQPGRSLRLSCAASGFTFSSYGMHWVRQAPGKGLEWVAVISYDGSNKYYADSVKGRFTISRDNSKNTLYLQMNSLRAEDTAVYYCASDLGAGPYYYGMDVWGQGTTVTVSS
VL: QSVLTQPPSASGTPGQRVTISCSGSSSNIKFNSVNWYQQLPGTAPKLLIYSNNQRPSGVPDRFSGSKSGTSASLAISGLQSEDEADYYCSSWDDDARGTIFGGGTKLTVL
notes: also called anti-PD-1 antibody clone F2 (human IgG4)
In [7], B13 showed an EC50 of 0.446 nM.

The term Kd denotes the constant that tells how readily two partners part at equilibrium. A higher Kd goes with weaker binding. Broadly, the EC50 is the concentration giving half of the maximal effect. A high value points to weaker potency.
